Experimental findings from PMC3258144 are described below.

For the series, the target named is Dnmt3a-C WT (mouse, UniProt O88508 608-908). The series can be described thus: fluorescence anisotropy.
Chain of Dnmt3a-C WT (O88508 608-908): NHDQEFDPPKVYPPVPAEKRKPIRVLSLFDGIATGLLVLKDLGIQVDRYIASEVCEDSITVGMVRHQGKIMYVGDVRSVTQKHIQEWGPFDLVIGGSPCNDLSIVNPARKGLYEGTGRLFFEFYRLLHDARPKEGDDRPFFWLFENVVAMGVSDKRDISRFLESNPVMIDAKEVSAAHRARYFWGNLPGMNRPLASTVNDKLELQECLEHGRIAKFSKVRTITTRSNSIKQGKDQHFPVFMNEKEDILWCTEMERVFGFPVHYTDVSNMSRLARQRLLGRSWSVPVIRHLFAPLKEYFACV

B1: Non-CG-Cy5 29-mer (dsDNA)
DNA 1: ACTTGCAACAGTCCTAACATTCACCTCTT
DNA 2: AAGAGGTGAATGTTAGGACTGTTGCAAGT
B1: binding was characterised by a dissociation constant (Kd) of 130 ± 12 nM.

B2: 2CG-Cy5 29-mer (dsDNA)
DNA 1: ACTTGCAACGGTCCTAACCGTCACCTCTT
DNA 2: AAGAGGTGACGGTTAGGACCGTTGCAAGT
The molecule B2 came in with a Kd of 190 ± 10 nM.
